The source of these data is PMC4666614, “Identification of New Regions in HIV-1 gp120 Variable 2 and 3 Loops that Bind to α4β7 Integrin Receptor” (PLoS ONE, 2015).

The test has as its target α4β7 integrin receptor on RPMI8866 cells (human (endogenous in RPMI8866)) (UniProt P13612).

Chain of α4β7 integrin receptor on RPMI8866 cells (human (endogenous in RPMI8866)) (P13612 34-1032, chain 1 of 2): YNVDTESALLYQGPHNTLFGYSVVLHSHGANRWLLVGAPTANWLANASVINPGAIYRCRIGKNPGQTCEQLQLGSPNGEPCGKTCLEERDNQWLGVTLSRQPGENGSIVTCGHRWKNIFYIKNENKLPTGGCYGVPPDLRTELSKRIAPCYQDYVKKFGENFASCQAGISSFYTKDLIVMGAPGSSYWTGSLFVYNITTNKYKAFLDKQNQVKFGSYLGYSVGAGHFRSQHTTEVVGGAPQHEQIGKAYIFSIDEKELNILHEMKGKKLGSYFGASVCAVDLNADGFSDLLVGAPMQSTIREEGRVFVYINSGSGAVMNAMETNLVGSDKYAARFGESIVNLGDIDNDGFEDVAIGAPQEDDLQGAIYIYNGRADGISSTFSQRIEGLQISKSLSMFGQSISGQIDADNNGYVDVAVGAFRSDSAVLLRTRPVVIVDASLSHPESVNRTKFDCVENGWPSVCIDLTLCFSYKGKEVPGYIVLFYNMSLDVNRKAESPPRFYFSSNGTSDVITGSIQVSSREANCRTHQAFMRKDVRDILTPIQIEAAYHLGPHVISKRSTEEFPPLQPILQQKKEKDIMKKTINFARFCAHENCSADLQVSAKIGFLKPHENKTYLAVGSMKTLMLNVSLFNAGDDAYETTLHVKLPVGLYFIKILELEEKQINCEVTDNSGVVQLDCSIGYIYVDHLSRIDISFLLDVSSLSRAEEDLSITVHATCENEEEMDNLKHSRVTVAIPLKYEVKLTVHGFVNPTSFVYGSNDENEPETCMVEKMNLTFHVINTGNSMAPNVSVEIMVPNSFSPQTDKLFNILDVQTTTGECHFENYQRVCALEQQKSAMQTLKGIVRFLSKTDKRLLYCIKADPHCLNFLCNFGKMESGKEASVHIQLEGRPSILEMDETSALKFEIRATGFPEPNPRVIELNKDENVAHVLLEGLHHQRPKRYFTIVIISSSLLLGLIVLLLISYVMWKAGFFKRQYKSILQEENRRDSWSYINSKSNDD
Chain of α4β7 integrin receptor on RPMI8866 cells (human (endogenous in RPMI8866)) (P26010 20-798, chain 2 of 2, further chain): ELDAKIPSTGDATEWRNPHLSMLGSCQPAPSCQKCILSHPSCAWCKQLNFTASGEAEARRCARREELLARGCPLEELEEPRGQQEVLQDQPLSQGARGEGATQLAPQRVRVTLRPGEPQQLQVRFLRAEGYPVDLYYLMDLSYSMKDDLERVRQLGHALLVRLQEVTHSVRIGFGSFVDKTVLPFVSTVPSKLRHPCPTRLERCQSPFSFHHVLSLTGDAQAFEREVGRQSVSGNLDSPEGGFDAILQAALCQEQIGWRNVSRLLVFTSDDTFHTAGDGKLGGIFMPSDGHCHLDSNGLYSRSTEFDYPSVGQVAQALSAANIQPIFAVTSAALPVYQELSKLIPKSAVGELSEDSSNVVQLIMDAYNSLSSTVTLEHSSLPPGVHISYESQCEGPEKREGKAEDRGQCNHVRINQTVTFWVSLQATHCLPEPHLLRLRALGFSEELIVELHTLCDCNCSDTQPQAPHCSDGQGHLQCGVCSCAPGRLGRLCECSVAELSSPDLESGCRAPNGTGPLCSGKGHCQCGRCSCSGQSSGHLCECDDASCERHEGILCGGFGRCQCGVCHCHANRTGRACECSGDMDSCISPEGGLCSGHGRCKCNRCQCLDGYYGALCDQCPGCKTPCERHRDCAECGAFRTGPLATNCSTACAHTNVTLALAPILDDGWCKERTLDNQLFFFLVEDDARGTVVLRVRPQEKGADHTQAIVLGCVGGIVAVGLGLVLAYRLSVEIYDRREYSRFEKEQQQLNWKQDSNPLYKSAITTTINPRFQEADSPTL

Substance “HIV-1 envelope protein on 92TH023 virions (primary virus, subtype CRF01_AE) (natural protein)” came in with a % inhibition of α4β7 binding to MAdCAM-1 at p24 0.75–3 ng/well of 25 to 35%.
